Measurements as given in publication PMC11053023, “Mechanism of Ψ-Pro/C-degron recognition by the CRL2^FEM1B ubiquitin ligase” (Nature Communications, 2024).

Target: FEM1B-EB-EC ternary complex (human) (UniProt Q9UK73)
Assay: SEC; peaks of the purified FEM1B-EB-EC complexes (Supplementary Fig. 1g); how the masses were found is not given

## FEM1B-EB-EC ternary complex (from UniProt Q9UK73 1-627; Q15370 1-118; Q15369 17-112)
  stoichiometry N: 2
